The record followed here is doi:10.1101/2024.06.14.598999 (bioRxiv, 2024).

Assay [1] deals with T1, AP5 ζ/σ5 subcomplex, purified (mouse GST-AP5ζ-Twin-Strep with human AP5σ5) (mouse | human, UniProt Q3U829 1-807; Q9NUS5 1-200).
T1 sequence (looked up) 1: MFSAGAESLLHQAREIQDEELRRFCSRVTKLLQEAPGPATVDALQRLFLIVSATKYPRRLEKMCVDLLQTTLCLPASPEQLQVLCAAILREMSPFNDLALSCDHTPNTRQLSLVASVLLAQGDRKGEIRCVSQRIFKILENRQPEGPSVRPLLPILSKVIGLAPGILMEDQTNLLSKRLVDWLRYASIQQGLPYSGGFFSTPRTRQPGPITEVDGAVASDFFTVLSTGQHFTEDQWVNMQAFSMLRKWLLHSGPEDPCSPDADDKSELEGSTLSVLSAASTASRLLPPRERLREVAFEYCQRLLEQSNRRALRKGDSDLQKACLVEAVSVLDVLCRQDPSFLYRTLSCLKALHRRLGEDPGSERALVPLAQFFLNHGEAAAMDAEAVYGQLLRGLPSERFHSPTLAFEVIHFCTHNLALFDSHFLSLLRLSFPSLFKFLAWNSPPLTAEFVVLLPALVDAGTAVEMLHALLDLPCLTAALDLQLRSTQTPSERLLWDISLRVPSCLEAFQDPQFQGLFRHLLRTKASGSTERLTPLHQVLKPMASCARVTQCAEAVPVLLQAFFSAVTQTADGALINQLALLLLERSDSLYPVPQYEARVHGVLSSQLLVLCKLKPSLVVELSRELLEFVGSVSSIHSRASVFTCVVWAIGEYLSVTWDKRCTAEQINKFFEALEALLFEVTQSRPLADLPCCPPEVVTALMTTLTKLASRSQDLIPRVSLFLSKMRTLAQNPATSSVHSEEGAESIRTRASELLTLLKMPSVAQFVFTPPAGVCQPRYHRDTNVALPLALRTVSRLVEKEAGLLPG
T1 sequence (looked up) 2: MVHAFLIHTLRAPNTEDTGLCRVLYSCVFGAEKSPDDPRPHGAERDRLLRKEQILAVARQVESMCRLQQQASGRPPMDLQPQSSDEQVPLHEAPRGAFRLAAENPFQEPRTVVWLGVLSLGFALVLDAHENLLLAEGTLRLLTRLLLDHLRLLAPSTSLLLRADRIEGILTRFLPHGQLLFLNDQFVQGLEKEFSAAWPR
The assay can be described thus: SEC. On the technique in general: SEC sorts molecules by how far they enter the pores of the column.

Assay [2] deals with T2, AP5 β5^trunk/µ5 subcomplex, purified (human GST-AP5β5(1-632)-Twin-Strep with mouse AP5μ5) (human | mouse, UniProt Q2VPB7 1-632; Q8BJ63 1-490).
T2 sequence (looked up) 1: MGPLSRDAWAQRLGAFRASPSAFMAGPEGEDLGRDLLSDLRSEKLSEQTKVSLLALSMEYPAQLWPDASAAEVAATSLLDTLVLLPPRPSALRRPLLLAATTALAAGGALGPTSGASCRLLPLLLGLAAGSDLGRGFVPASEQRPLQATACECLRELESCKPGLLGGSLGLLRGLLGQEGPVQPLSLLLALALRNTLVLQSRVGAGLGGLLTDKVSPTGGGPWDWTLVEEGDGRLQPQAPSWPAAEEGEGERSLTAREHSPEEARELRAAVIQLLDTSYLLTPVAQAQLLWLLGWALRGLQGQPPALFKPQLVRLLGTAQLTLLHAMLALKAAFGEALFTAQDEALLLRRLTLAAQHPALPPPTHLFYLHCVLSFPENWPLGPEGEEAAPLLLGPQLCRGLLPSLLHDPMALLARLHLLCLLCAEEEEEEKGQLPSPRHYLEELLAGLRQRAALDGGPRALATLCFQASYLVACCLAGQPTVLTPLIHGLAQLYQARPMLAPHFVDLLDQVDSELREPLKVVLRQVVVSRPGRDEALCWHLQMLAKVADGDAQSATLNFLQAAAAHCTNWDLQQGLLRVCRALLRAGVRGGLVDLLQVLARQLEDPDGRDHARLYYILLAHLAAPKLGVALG
T2 sequence (looked up) 2: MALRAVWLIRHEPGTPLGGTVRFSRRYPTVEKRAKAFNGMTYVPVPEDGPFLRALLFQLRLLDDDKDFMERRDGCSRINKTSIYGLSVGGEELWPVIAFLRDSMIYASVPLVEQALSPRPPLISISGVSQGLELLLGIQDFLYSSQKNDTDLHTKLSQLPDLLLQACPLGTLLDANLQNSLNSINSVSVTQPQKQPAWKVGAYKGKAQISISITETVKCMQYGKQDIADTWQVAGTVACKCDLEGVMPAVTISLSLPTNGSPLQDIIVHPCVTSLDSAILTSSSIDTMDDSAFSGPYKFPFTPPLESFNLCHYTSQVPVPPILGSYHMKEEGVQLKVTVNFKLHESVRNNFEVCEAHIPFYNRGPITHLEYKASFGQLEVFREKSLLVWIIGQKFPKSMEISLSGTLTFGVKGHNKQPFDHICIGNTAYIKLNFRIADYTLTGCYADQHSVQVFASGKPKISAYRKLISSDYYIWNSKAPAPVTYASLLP
As to the kind of experiment: SEC.

B1: SPG11^WD40-hairpin (human SPG11 residues 1-525) as incubated with the AP5 subcomplexes for size exclusion chromatography (domain or fragment, UniProt Q96JI7 1-525, looked up)
chain: MAAEEGVASAASAGGSWGTAAMGRVLPMLLVPVPAEAMGQLGSRAQLRTQPEALGSLTAAGSLQVLSLTPGSRGGGRCCLEGPFWHFLWEDSRNSSTPTEKPKLLALGENYELLIYEFNLKDGRCDATILYSCSREALQKLIDDQDISISLLSLRILSFHNNTSLLFINKCVILHIIFPERDAAIRVLNCFTLPLPAQAVDMIIDTQLCRGILFVLSSLGWIYIFDVVDGTYVAHVDLALHKEDMCNEQQQEPAKISSFTSLKVSQDLDVAVIVSSSNSAVALNLNLYFRQHPGHLLCERILEDLPIQGPKGVDEDDPVNSAYNMKLAKFSFQIDRSWKAQLSSLNETIKNSKLEVSCCAPWFQDILHLESPESGNHSTSVQSWAFIPQDIMHGQYNVLQKDHAKTSDPGRSWKIMHISEQEEPIELKCVSVTGFTALFTWEVERMGYTITLWDLETQGMQCFSLGTKCIPVDSSGDQQLCFVLTENGLSLILFGLTQEEFLNRLMIHGSASTVDTLCHLNGWGR
Take B1: the binding result in assay [1] and in assay [2] was “binds” in each case.
